Experiment [1] addresses Enhygromyxa salina luciferase LuxA (Enhygromyxa salina). Description: SEC-MALS. A general note: SEC sorts molecules by how far they enter the pores of the column.
Experiment [2] shares this target. In words: SAXS.

“And” between values parts separate entries of the source, which are not always exact repeats. Equal values may be shown once.

What is called stoichiometry N is the number of molecules, sites or subunits per partner or assembly.

In the case of “Enhygromyxa salina luciferase LuxA (enzyme)”, in experiment [1], the stoichiometry N was 2 and 4. Also, in experiment [2], the percent of the protein as dimers is 82%; the percent of the protein as tetramers is 18%; the stoichiometry N is 2 and 4.

The values are drawn from article doi:10.1101/2023.02.27.530324.
